Test [1] has as its target GmRLK18-1 LRR domain expressed in E. coli (soybean (Glycine max)). The test can be described thus: native gel or EMSA; 12% (w/v) non-denatured PAGE of purified, refolded GmRLK18-1-LRR from E. coli; bands eluted and run again on SDS-PAGE.
Another test has as its system GmRLK18-1 LRR domain. As to the kind of experiment: Far Western analysis of total root proteins probed with the LRR domain. As to conditions: 2 D gels of total root proteins of SCN inoculated plants, identified by MS/MS; cyclophilin at 10 dai, methionine synthase at 28 dai. In kind it is binding, Glycine max.
The target in test [2] is GmRLK08-1 LRR domain expressed in E. coli (soybean (Glycine max)). As to the kind of experiment: fluorescence polarisation; FITC-labelled peptides in 20 mM phosphate buffer pH 6.9 in a cuvette, 5 nM aliquots, increase in polarisation; baseline of non-CLE and non-LRR peptides subtracted; Kd from double reciprocal Scatchard plots; 3 repeats with 3 protein preparations; apparent for peptide L.

Test [3] deals with GmRLK18-1 LRR domain expressed in E. coli (soybean (Glycine max)). The description is as above.

No end group written: not given here.

In test [1], “GmRLK18-1 LRR domain expressed in E. coli (domain or fragment)” gave a stoichiometry N of 2.
For “cyclophilin: soybean root cyclophilin, 182 amino acids, matches gi 17981611, 19,392 d, pI 8.38”, the “binding to the LRR domain in Far Western (in words)” value in the test on GmRLK18-1 LRR domain is reported as “avidly bound to the LRR”.
For the molecule KRLSPSGPDPHHH (not fully specified (N-terminus); also: labeled with FITC) [CLE peptide N], the values for the Kd in test [2] and in test [3] were 78 nM and 30 nM, respectively.
The corresponding values for RLAPEGPDPHHN (not fully specified (N-terminus); also: labeled with FITC) [CLE peptide 30] are 84 nM and 44 nM.
As to CTLSRLKTLDISNNALNGNLPATLSNLS (not fully specified (N-terminus); also: labeled with FITC) [LRR peptide L of GmRLK18-1], the Kd turned out to be 135 nM in test [2] and 36 nM in test [3].
The corresponding values for RTVPSGPDPLHH (not fully specified (N-terminus); also: labeled with FITC) [CLE peptide 3] are 50 nM and 29 nM.
With DLPLAPADRLAGGPDPQHNVRAPPRKP (not fully specified (N-terminus); also: labeled with FITC) [CLE peptide 2L], the Kd in test [2] was 338 nM; in test [3] it was 142 nM.
The corresponding values for AHEVPSGPNPISNR (not fully specified (N-terminus); also: labeled with FITC) [CLE peptide T] are 204 nM and 20 nM.
As for SKRRVPNGPDPIHNR (not fully specified (N-terminus); also: labeled with FITC) [CLE peptide 36], the results for the Kd in test [2] and in test [3] were 52 nM and 14 nM, respectively.
With KGLGLHEEELRTVPSGPDPLHHHVNPPRQPR (not fully specified (N-terminus); also: labeled with FITC) [CLE peptide 3L], the Kd in test [2] was found to be 142 nM; in test [3], 65 nM.
The corresponding values for RAELDFNYMSKRRVPNGPDPIHNRRAGNSGR (not fully specified (N-terminus); also: labeled with FITC) [CLE peptide 36L] are 51 nM and 49 nM.
The corresponding values for RLAPGGPDPQHN (not fully specified (N-terminus); also: labeled with FITC) [CLE peptide 2] are 96 nM and 45 nM.
